Experimental data taken from patent US20230331817A1 (The Regents of the University of California, priority 2020, published 2023).
Where two headings read alike, the source gives them in different places.

Tests used:
[1] = system: mouse tail bleeding model; conditions: cited from earlier work
[2] = target: T1, human plasmin (Homo sapiens, UniProt P00747); assay: Protease inhibition assay, plasmin (S-2251 amidolytic activity); assay type: biochemical; conditions: 3 nM plasmin; 1 hour at room temperature; tight-binding equation
T1 construct: purchased Hematologic Technologies Inc (Essex Junction, VT)
Protocol: (§1) All reactions were carried out in TBS, pH 7.5 (50 mM Tris-HCL, pH 7.5, containing 100 mM NaCl), containing 0.1 mg bovine serum albumin/ml (TBS/BSA) and 2 mM Ca2+(TBS/BSA/Ca2+, pH 7.5). […] The inhibition constant, K* was determined using the nonlinear regression data analysis program Grafit.
(§2) Ki values were obtained by correcting for the effect of substrate according to Beith (38), using equation 2, where (S) is substrate concentration and KM is specific for each enzyme.
Reactions were carried out in TBS/BSA and 2 mM calcium. […] Synthetic substrate for plasmin was then added to a final concentration of 1 KM, and residual amidolytic activity was measured in a kinetic microplate reader (Molecular Devices).

[3] = target: T2, FVIIa/sTF (Homo sapiens, UniProt P08709); assay: Protease inhibition assay, FVIIa/soluble tissue factor; assay type: biochemical; conditions: 20 nM FVIIa/sTF; read-out: Ki for Factor VIIa/soluble tissue factor
T2 construct: human factor VIIa (FVIIa) was prepared as described previously (34)
Protocol: as §1, §2

[4] = target: T3, FXa (Homo sapiens, UniProt P00742); assay: Protease inhibition assay, factor Xa; assay type: biochemical; conditions: 1 nM FXa
T3 construct: FXa, factor Xa
Protocol: FIG. 2. Data from Equilibrium inhibition constants (Ki) of KD1Y11T/R15KL17R-KT with plasmin, FXIa, kallikrein (KLK), FVIIa/sTF and FXa. Percent activity of 3 nM human plasmin remaining in the presence of various concentrations (0.05 to 19.2 nM) of KD1Y11T/R15KL17R-KT (●) or BPTI (◯). And percent activity of 1 nM human FXIa (▴), 1 nM human kallikrein (●), 20 nM human FVIIa/sTF (Δ) and 1 nM FXa (♦) remaining in the presence of various concentrations (1 μM to 30 μM) of KD1Y11T/R15KL17R-KT.
Ki values for each inhibitor were calculated using the tight binding equations.

[5] = system: HUVEC; assay type: cell-based, human
Protocol: (§3) Resazurin reduction assay (Fisher Scientific) was used to evaluate the potential cytotoxicity of antifibrinolytic agents toward primary human endothelial cells and skin fibroblasts. Phosphate buffer that was used to dissolve the samples was included as negative control. The assay is based on reduction of the non-fluorescent dye resazurin, to the highly fluorescent resorufin by viable cells. […] Briefly, cells in 96-well cell culture plates were treated with different concentrations of antifibrinolytic compounds (as described above). After 24 hours resazurin reagent was added to each well and the plates were incubated at 37° C. for 4 hours. Fluorescence was measured by the FLUOstar Omega Microplate Reader (BMG Labtech) using an excitation wavelength of 544 nm and an emission wavelength of 590 nm. Each assay was done in duplicate, with three replicates each. The viability was evaluated based on comparison with untreated cells.

[6] = system: primary human dermal skin fibroblasts; assay: Resazurin reduction (alamarBlue) viability assay, skin fibroblasts; assay type: cell-based
Protocol: as §3

[7] = system: HUVEC; assay: Caspase 3/7 assay, HUVEC; assay type: cell-based, human; conditions: 24 hours; 30 μM KD1TM, 30 μM BPTI, 60 mM EACA, 30 mM TXA
Protocol: The influence of antifibrinolytic agents on apoptosis in cells was detected using the Caspase-Glo 3/7 Assay kit (Promega). Caspase 3 and 7 are activated in cells that undergo apoptosis. The assay provides a luminogenic substrate for caspase 3 and 7. Enzymatic activity leads to luminescence, which is proportional to the amount of caspase activity present. Cells were seeded in 96-well plates and treated with antifibrinolytic agents or phosphate buffer (solvent control). Taxol was included as positive control. After 24 hours of treatment, caspase reagent was added to each well, mixed and incubated for 1 hour at room temperature. Luminescence was measured using the FLUOstar Omega Microplate Reader (BMG Labtech).

[8] = system: HUVEC; conditions: 24 hours; 30 μM KD1TM, 30 μM BPTI, 60 mM EACA, 30 mM TXA
From the text: (§4) Primary human pooled umbilical vein endothelial cells (HUVEC) were obtained from ATCC. The cells were maintained in Vascular Cell Basal Medium (ATCC), supplemented with the Endothelial Cell Growth Kit-BBE (ATCC) and Penicillin-Streptomycin-Amphotericin B (ATCC). Primary human dermal skin fibroblasts were obtained from LONZA and maintained in Fibroblast Basal Medium (FBMTM, LONZA), supplemented with a cocktail of growth factors, fetal bovine serum and antibiotics (FGMTM-2 SingleQuots™, LONZA). All cells were maintained in a humidified 5% C02 atmosphere at 37° C. and were passaged once they reached 80% confluence. All experiments were performed with cells in the logarithmic growth phase.
(§5) For toxicity studies, cells were seeded into 96-well or 24-well cell culture plates at 3,500 cells/cm2 and were used for experiments once they reached 80% confluence.
(§6) Cell toxicity and cell death was evaluated with the CellTox™ Green Cytotoxicity Assay (Promega). This assay measures changes in membrane integrity that occur as a result of cell death. The dye used in the system is excluded from viable cells but binds to DNA in compromised cells, which results in a fluorescent signal. We measured cell death in HUVEC and primary fibroblasts treated with antifibrinolytic agents at 4 concentrations (as indicated above) with triplicates per concentration in 24-well plates after 24 hours of exposure. Hoechst (Thermo Fisher Scientific) was used to stain all nuclei. Images of cells were captured using an inverted microscope (Nicon; Edipse T2000 TE). Green fluorescent cells (FITC filter) and Hoechst stained cells (DAPI filter) were counted using Image J software.

[9] = system: primary human dermal skin fibroblasts; conditions: 24 hours; 30 μM KD1TM, 30 μM BPTI, 60 mM EACA, 30 mM TXA
From the text: as §4, §5, §6

[10] = human, in vivo; cited from earlier work
[11] = in vivo; cited from earlier work

T1 sequence (P00747 97-580 limits assumed): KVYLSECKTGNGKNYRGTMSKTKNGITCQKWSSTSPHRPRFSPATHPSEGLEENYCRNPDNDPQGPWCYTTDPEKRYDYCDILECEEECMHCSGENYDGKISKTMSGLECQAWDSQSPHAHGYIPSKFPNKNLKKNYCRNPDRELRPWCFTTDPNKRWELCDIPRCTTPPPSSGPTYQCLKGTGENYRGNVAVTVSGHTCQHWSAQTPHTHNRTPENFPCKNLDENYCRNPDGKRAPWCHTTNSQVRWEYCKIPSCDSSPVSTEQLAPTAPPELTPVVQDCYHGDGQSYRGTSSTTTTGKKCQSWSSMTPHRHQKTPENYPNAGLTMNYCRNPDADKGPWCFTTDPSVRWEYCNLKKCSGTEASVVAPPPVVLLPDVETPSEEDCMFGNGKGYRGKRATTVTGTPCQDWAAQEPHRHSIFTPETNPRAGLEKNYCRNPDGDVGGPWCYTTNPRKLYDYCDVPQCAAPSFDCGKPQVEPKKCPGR
T1 sequence (P00747 581-810 limits assumed): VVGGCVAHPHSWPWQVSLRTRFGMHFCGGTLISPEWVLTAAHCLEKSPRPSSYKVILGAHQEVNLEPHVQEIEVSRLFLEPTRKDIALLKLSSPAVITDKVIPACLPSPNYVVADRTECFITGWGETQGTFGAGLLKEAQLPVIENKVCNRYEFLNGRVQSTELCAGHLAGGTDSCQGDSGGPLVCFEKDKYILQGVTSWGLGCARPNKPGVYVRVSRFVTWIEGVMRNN
T2 sequence (P08709 213-466 limits assumed): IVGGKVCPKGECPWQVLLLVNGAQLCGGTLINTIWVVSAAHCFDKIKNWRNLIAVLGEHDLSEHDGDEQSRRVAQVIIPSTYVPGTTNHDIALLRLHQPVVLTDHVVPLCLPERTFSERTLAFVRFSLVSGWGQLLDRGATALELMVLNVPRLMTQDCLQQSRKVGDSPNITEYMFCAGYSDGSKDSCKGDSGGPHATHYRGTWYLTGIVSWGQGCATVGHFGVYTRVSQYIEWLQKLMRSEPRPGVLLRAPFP
T2 sequence (P08709 61-212 limits assumed): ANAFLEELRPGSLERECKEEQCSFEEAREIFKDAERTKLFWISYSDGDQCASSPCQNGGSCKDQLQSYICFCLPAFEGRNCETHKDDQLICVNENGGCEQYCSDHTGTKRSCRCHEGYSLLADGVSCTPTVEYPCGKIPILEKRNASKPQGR
T2 sequence (P13726 33-251 partner limits assumed): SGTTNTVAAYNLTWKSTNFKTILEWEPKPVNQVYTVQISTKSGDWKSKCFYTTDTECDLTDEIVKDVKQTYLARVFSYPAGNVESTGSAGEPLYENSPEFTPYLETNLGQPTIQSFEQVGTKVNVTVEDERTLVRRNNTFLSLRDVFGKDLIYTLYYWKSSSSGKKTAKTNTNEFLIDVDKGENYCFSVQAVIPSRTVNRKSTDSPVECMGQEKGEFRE
T3 sequence (P00742 235-488 limits assumed): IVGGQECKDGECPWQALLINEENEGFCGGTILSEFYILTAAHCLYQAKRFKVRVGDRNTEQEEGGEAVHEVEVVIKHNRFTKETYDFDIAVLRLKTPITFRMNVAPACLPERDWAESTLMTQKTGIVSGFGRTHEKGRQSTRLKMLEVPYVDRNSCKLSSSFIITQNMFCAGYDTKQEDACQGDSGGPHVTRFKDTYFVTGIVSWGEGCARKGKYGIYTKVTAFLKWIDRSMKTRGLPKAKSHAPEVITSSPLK
T3 sequence (P00742 41-179 limits assumed): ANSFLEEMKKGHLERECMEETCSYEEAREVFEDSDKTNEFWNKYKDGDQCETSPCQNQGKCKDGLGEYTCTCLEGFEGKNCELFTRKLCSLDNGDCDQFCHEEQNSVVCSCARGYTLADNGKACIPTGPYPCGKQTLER

Row | Substance | Reduction of blood loss [1] | Ki [2] | Ki [3] | Ki [4] | HUVEC viability (FIG. 4) [5] | Fibroblast cell viability (FIG. 5) [6] | Apoptosis, caspase-3/7 activity, HUVEC (FIG. 6) [7] | HUVEC cytotoxicity, CellTox green (FIG. 7) [8] | Fibroblasts cytotoxicity, CellTox green (FIG. 8) [9] | half-life [10] | half-life [11]
1 | Textilinin-1 [Q8008] | as effective as aprotinin in reducing blood loss | – | – | – | – | – | – | – | – | – | –
2 | aprotinin | – | 0.5 ± 0.1 nM | > 3000 nM | > 3000 nM | not significantly different from the untreated cells | not significantly different from the untreated cells | did not induce apoptosis | did not induce toxicity | did not induce toxicity | ~2 h | ~1.17 h
